Numbered stars: 1 amine (or outer) side, 2 acyl side, 3 side chain; on linkers, the order of the positions; unused ones are H or OH. Bridge positions count the residues as written; N and C are the ends. Side chains are listed from the residue outwards. Ends that are not written are not given here. * marks the point of attachment. C20 diacid = O=C(O)CCCCCCCCCCCCCCCCCCC(=O)*; γGlu = O=C(O)[C@H](CCC(=O)[*:2])N[*:1]
T1: human amylin receptor (human, UniProt P30988 25-474; O60896 24-148, limits assumed)
T1 construct: whole, on cells; Calcitonin receptor plus RAMP-3 gives the amylin 3(a) receptor; membranes of Amylin 3(a)/CRE-luc cells were used; also called hAmylin-R; hAmylinR
T1 sequence (looked up) 1: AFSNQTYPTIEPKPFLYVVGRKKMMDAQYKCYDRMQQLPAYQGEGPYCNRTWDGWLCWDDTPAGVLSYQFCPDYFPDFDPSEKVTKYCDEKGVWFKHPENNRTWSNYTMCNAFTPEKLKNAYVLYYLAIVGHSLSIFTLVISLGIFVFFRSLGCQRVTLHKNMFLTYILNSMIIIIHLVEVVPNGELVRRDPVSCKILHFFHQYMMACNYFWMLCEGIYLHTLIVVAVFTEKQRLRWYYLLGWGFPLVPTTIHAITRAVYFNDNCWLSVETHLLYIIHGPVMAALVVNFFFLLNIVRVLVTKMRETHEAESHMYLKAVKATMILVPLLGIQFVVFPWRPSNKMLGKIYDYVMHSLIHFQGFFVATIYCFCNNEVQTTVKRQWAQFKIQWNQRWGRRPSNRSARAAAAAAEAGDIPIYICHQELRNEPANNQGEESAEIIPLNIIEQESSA
T1 sequence (looked up) 2: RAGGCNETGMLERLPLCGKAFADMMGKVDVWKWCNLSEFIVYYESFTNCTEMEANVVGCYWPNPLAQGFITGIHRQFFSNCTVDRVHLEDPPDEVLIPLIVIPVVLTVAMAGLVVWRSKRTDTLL


Molecular target: T1, human amylin receptor
Test: SPA competition binding, displacement of 125I-rat amylin from membranes with human amylin 3(a) receptor (Assay V)
Outline: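 SPA beads with BHK Amylin 3(a)/CRE-luc cell membranes (35 ng/μL final) in 50 mM Hepes pH 7.4, 1 mM CaCl2, 5 mM MgCl₂, 0.1% OA, 0.02% Tween20.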

| Binder | IC50 |
| --- | --- |
| K([γGlu-C20 diacid])CNTATCATQRLAEFLRHSSPNFGAIPSSTNVGPRTY-NH2 (disulfide 2-7; N-terminus assumed; SMILES CC[C@H](C)[C@H](NC(=O)[C@H](C)NC(=O)CNC(=O)[C@H](Cc1ccccc1)NC(=O)[C@H](CC(N)=O)NC(=O)[C@@H]1CCCN1C(=O)[C@H](CO)NC(=O)[C@H](CO)NC(=O)[C@H](Cc1c[nH]cn1)NC(=O)[C@H](CCCNC(=N)N)NC(=O)[C@H](CC(C)C)NC(=O)[C@H](Cc1ccccc1)NC(=O)[C@H](CCC(=O)O)NC(=O)[C@H](C)NC(=O)[C@H](CC(C)C)NC(=O)[C@H](CCCNC(=N)N)NC(=O)[C@H](CCC(N)=O)NC(=O)[C@@H](NC(=O)[C@H](C)NC(=O)[C@@H]1CSSC[C@H](NC(=O)[C@@H](N)CCCCNC(=O)CC[C@H](NC(=O)CCCCCCCCCCCCCCCCCCC(=O)O)C(=O)O)C(=O)N[C@@H](CC(N)=O)C(=O)N[C@@H]([C@@H](C)O)C(=O)N[C@@H](C)C(=O)N[C@@H]([C@@H](C)O)C(=O)N1)[C@@H](C)O)C(=O)N1CCC[C@H]1C(=O)N[C@@H](CO)C(=O)N[C@@H](CO)C(=O)N[C@H](C(=O)N[C@@H](CC(N)=O)C(=O)N[C@H](C(=O)NCC(=O)N1CCC[C@H]1C(=O)N[C@@H](CCCNC(=N)N)C(=O)N[C@H](C(=O)N[C@@H](Cc1ccc(O)cc1)C(N)=O)[C@@H](C)O)C(C)C)[C@@H](C)O, also called 14E, 17R, 21P, 27P, 34P, 35R) | 0.163 nM |
| K([γGlu-C20 diacid])CNTATCATQRLAEFLRHSSPNFGAIPSSTNVGPHTY-NH2 (disulfide 2-7, also called 14E, 17R, 21P, 27P, 34P, 35H) | 0.179 nM |
| K([γGlu-C20 diacid])CNTATCATQRLAEFLRHSSPNFGAIPSSTNVGPETY-NH2 (disulfide 2-7; N-terminus assumed; SMILES CC[C@H](C)[C@H](NC(=O)[C@H](C)NC(=O)CNC(=O)[C@H](Cc1ccccc1)NC(=O)[C@H](CC(N)=O)NC(=O)[C@@H]1CCCN1C(=O)[C@H](CO)NC(=O)[C@H](CO)NC(=O)[C@H](Cc1c[nH]cn1)NC(=O)[C@H](CCCNC(=N)N)NC(=O)[C@H](CC(C)C)NC(=O)[C@H](Cc1ccccc1)NC(=O)[C@H](CCC(=O)O)NC(=O)[C@H](C)NC(=O)[C@H](CC(C)C)NC(=O)[C@H](CCCNC(=N)N)NC(=O)[C@H](CCC(N)=O)NC(=O)[C@@H](NC(=O)[C@H](C)NC(=O)[C@@H]1CSSC[C@H](NC(=O)[C@@H](N)CCCCNC(=O)CC[C@H](NC(=O)CCCCCCCCCCCCCCCCCCC(=O)O)C(=O)O)C(=O)N[C@@H](CC(N)=O)C(=O)N[C@@H]([C@@H](C)O)C(=O)N[C@@H](C)C(=O)N[C@@H]([C@@H](C)O)C(=O)N1)[C@@H](C)O)C(=O)N1CCC[C@H]1C(=O)N[C@@H](CO)C(=O)N[C@@H](CO)C(=O)N[C@H](C(=O)N[C@@H](CC(N)=O)C(=O)N[C@H](C(=O)NCC(=O)N1CCC[C@H]1C(=O)N[C@@H](CCC(=O)O)C(=O)N[C@H](C(=O)N[C@@H](Cc1ccc(O)cc1)C(N)=O)[C@@H](C)O)C(C)C)[C@@H](C)O, also called 14E, 17R, 21P, 27P, 34P, 35E) | 0.14 nM |
| K([γGlu-C20 diacid])CNTATCATQRLAEFLRHSSPNFGAIPSSTNVGPNTP-NH2 (disulfide 2-7; N-terminus assumed; SMILES CC[C@H](C)[C@H](NC(=O)[C@H](C)NC(=O)CNC(=O)[C@H](Cc1ccccc1)NC(=O)[C@H](CC(N)=O)NC(=O)[C@@H]1CCCN1C(=O)[C@H](CO)NC(=O)[C@H](CO)NC(=O)[C@H](Cc1c[nH]cn1)NC(=O)[C@H](CCCNC(=N)N)NC(=O)[C@H](CC(C)C)NC(=O)[C@H](Cc1ccccc1)NC(=O)[C@H](CCC(=O)O)NC(=O)[C@H](C)NC(=O)[C@H](CC(C)C)NC(=O)[C@H](CCCNC(=N)N)NC(=O)[C@H](CCC(N)=O)NC(=O)[C@@H](NC(=O)[C@H](C)NC(=O)[C@@H]1CSSC[C@H](NC(=O)[C@@H](N)CCCCNC(=O)CC[C@H](NC(=O)CCCCCCCCCCCCCCCCCCC(=O)O)C(=O)O)C(=O)N[C@@H](CC(N)=O)C(=O)N[C@@H]([C@@H](C)O)C(=O)N[C@@H](C)C(=O)N[C@@H]([C@@H](C)O)C(=O)N1)[C@@H](C)O)C(=O)N1CCC[C@H]1C(=O)N[C@@H](CO)C(=O)N[C@@H](CO)C(=O)N[C@H](C(=O)N[C@@H](CC(N)=O)C(=O)N[C@H](C(=O)NCC(=O)N1CCC[C@H]1C(=O)N[C@@H](CC(N)=O)C(=O)N[C@H](C(=O)N1CCC[C@H]1C(N)=O)[C@@H](C)O)C(C)C)[C@@H](C)O, also called 14E, 17R, 21P, 27P, 34P, 37P) | 0.214 nM |

Second part, the binder after the results:

| IC50 | Binder |
| --- | --- |
| 0.271 nM | K([γGlu-C20 diacid])CNTATCATQRLAHFLRHSSPNFGAIPSSTNVGHNTY-NH2 (disulfide 2-7; N-terminus assumed; SMILES CC[C@H](C)[C@H](NC(=O)[C@H](C)NC(=O)CNC(=O)[C@H](Cc1ccccc1)NC(=O)[C@H](CC(N)=O)NC(=O)[C@@H]1CCCN1C(=O)[C@H](CO)NC(=O)[C@H](CO)NC(=O)[C@H](Cc1c[nH]cn1)NC(=O)[C@H](CCCNC(=N)N)NC(=O)[C@H](CC(C)C)NC(=O)[C@H](Cc1ccccc1)NC(=O)[C@H](Cc1c[nH]cn1)NC(=O)[C@H](C)NC(=O)[C@H](CC(C)C)NC(=O)[C@H](CCCNC(=N)N)NC(=O)[C@H](CCC(N)=O)NC(=O)[C@@H](NC(=O)[C@H](C)NC(=O)[C@@H]1CSSC[C@H](NC(=O)[C@@H](N)CCCCNC(=O)CC[C@H](NC(=O)CCCCCCCCCCCCCCCCCCC(=O)O)C(=O)O)C(=O)N[C@@H](CC(N)=O)C(=O)N[C@@H]([C@@H](C)O)C(=O)N[C@@H](C)C(=O)N[C@@H]([C@@H](C)O)C(=O)N1)[C@@H](C)O)C(=O)N1CCC[C@H]1C(=O)N[C@@H](CO)C(=O)N[C@@H](CO)C(=O)N[C@H](C(=O)N[C@@H](CC(N)=O)C(=O)N[C@H](C(=O)NCC(=O)N[C@@H](Cc1c[nH]cn1)C(=O)N[C@@H](CC(N)=O)C(=O)N[C@H](C(=O)N[C@@H](Cc1ccc(O)cc1)C(N)=O)[C@@H](C)O)C(C)C)[C@@H](C)O, also called 14H, 17R, 21P, 27P, 34H) |
| 0.396 nM | K([γGlu-C20 diacid])CNTATCATQRLAHFLRHSSPNFGAIPSSTNVGSHTY-NH2 (disulfide 2-7; N-terminus assumed; SMILES CC[C@H](C)[C@H](NC(=O)[C@H](C)NC(=O)CNC(=O)[C@H](Cc1ccccc1)NC(=O)[C@H](CC(N)=O)NC(=O)[C@@H]1CCCN1C(=O)[C@H](CO)NC(=O)[C@H](CO)NC(=O)[C@H](Cc1c[nH]cn1)NC(=O)[C@H](CCCNC(=N)N)NC(=O)[C@H](CC(C)C)NC(=O)[C@H](Cc1ccccc1)NC(=O)[C@H](Cc1c[nH]cn1)NC(=O)[C@H](C)NC(=O)[C@H](CC(C)C)NC(=O)[C@H](CCCNC(=N)N)NC(=O)[C@H](CCC(N)=O)NC(=O)[C@@H](NC(=O)[C@H](C)NC(=O)[C@@H]1CSSC[C@H](NC(=O)[C@@H](N)CCCCNC(=O)CC[C@H](NC(=O)CCCCCCCCCCCCCCCCCCC(=O)O)C(=O)O)C(=O)N[C@@H](CC(N)=O)C(=O)N[C@@H]([C@@H](C)O)C(=O)N[C@@H](C)C(=O)N[C@@H]([C@@H](C)O)C(=O)N1)[C@@H](C)O)C(=O)N1CCC[C@H]1C(=O)N[C@@H](CO)C(=O)N[C@@H](CO)C(=O)N[C@H](C(=O)N[C@@H](CC(N)=O)C(=O)N[C@H](C(=O)NCC(=O)N[C@@H](CO)C(=O)N[C@@H](Cc1c[nH]cn1)C(=O)N[C@H](C(=O)N[C@@H](Cc1ccc(O)cc1)C(N)=O)[C@@H](C)O)C(C)C)[C@@H](C)O, also called 14H, 17R, 21P, 27P, 35H) |

From patent publication US20140087995A1 (published 2014)
